The values below come from the supplement of paper PMC12042874.

± gives the uncertainty stated by the source.

The data set in a line: amyloid nucleation score (Sup35N fusion, yeast selection) (log enrichment); library NNK2; higher = more nucleation; inactive = no reads after selection. In outline:
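Peptides of 20 random codons fused to Sup35N were expressed in psi-negative yeast, induced 24 hours with 100 μM copper sulfate, then grown 7 days at 30°C on medium lacking adenine and uracil. Input and output plasmid inserts were Illumina-sequenced. Nucleation score is the DiMSum log enrichment of output over input reads, centred on the mode score of non-aggregating sequences, excluding sequences with under 100 input reads. Random libraries had three technical output replicates.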

For the substance KSAYIGASNHAEIRHQSLSS, the amyloid nucleation score was determined as 0.253 ± 0.24.

Substance LASFGLRGVRQCQMNAE gave an amyloid nucleation score of 1.78 ± 0.15.

Consider AFTLQIHGFSVIVTASLQVS, for which the amyloid nucleation score is -0.642 ± 1.1.

Take GSRHRDLYLGLRLYYTDVEV: the amyloid nucleation score is -0.763 ± 0.36.

As to WYTDPDSDVAHYFAPQLK, the amyloid nucleation score is -0.693 ± 1.1.

As to GFLIKWNNGVLVLVSAMMCI, the amyloid nucleation score is -0.598 ± 0.4.

In turn, RGTVVTGF returned an amyloid nucleation score of 1.3 ± 0.44.

In turn, VVSILRLDSVGRVVIEAWVR registered an amyloid nucleation score of 0.223 ± 0.77.

Consider PWALTFNHCKIDDTKRGHIV, for which the amyloid nucleation score stood at 0.64 ± 0.8.

The substance WRAIALLEARTGSRQ returned an amyloid nucleation score of 1.08 ± 0.14.

On to FEWWTSMGGGECVQRNNSVA, for which the amyloid nucleation score came to 0.697 ± 0.41.

Turning to PRVVGGFANISMWLATGTPF, the amyloid nucleation score amounted to 2.94 ± 0.093.

DSNRMNVNRTPDGVLGGCGT yielded an amyloid nucleation score of 0.468 ± 0.38.

For the substance RRLSNRRWLIFCQWSFHYGV, the amyloid nucleation score was 0.242 ± 0.61.

For YCCPYYRKVLF, the amyloid nucleation score was -0.559 ± 0.61.

Substance NFHLEIIFPRQLRLNRSPWV returned an amyloid nucleation score of 3.96 ± 0.13.

For the substance GSRPEWARVLGSLEIGCGAK, the amyloid nucleation score was 0.535 ± 0.3.

Turning to FFRCVLITPD, the amyloid nucleation score was determined as 0.179 ± 0.53.

With MSIEKCICLICSINMEVVGF, the amyloid nucleation score turned out to be 6.821 ± 0.059.

FFLGANGINALQNRSYIQPG returned an amyloid nucleation score of 0.007 ± 0.79.

With VWLNHLTTIYYCNHKLCLLL, the amyloid nucleation score amounted to 2.17 ± 0.22.

For GDVGAVRVSCVCWLVLVKRG, the amyloid nucleation score turned out to be 0.066 ± 0.76.

Take CKLHRVYAIFFSMD: the amyloid nucleation score result was “inactive”.

Take NSVMIDTDVKFAFFRSET: the amyloid nucleation score entry is “inactive”.

Take KMFVILIIHTLLGAITAVCG: the amyloid nucleation score was 0.186 ± 0.76.

On to KVESVKHRQNKGFYCWLVRN, for which the amyloid nucleation score was -1.25 ± 0.75.

With FRNNKLYIRVYRSKWTE, the amyloid nucleation score is -1.22 ± 1.1.

Regarding DNFFIMALHSSREVDMKNRS, the amyloid nucleation score is -1.53 ± 1.

The substance KQHVRMYWIAALAPMSGRGW yielded an amyloid nucleation score of 4.448 ± 0.042.

On to TVAVGVIV, for which the amyloid nucleation score entry is “inactive”.

Turning to KGFAKILLGTSCLMSV, the amyloid nucleation score was -0.848 ± 0.62.

For the substance TNYKRCCV, the amyloid nucleation score was -0.12 ± 0.32.

With DHADWNAYHISTEV, the amyloid nucleation score was determined as 3.25 ± 0.05.

In the case of NREANLDDWLGRGQFSMIWW, the amyloid nucleation score is -0.287 ± 0.79.

NLILYPRHDNYQSS: the amyloid nucleation score entry was “inactive”.

The substance IVGATYHLSWLPGYTGIYRG registered an amyloid nucleation score of 1.25 ± 0.47.

The substance RTPTRILQAMLFYSRDHYSI yielded an amyloid nucleation score of 0.218 ± 0.8.

The substance RGWCLDRPQYNVFRAMSRSL displayed an amyloid nucleation score of 0.066 ± 1.

Turning to VVIQPGTYFYLCNIFA, the amyloid nucleation score is -1.58 ± 0.78.

Regarding HFKWNYYSYSVWEWVFEQLH, the amyloid nucleation score was -0.36 ± 0.63.

For the substance KTGYINCSIMDYMV, the amyloid nucleation score result is “inactive”.

As to LIIDQVIMNGINVPYTYLIY, the amyloid nucleation score was 4.15 ± 0.056.

Regarding RPMWLSGAEKKWLSCWCNCM, the amyloid nucleation score was found to be 6.013 ± 0.046.

In the case of DTILWRSSHAEGTEAWHMGF, the amyloid nucleation score was 1.28 ± 0.38.

On to MEPNYGVRGVMYNFVMPRWM, for which the amyloid nucleation score was 7.251 ± 0.047.

YYMRRVSGLDISGRMCCKSV showed an amyloid nucleation score of 0.106 ± 0.42.

EAYVHGMR: the amyloid nucleation score is 1.07 ± 0.25.

Consider MWLSPRVVVFCRLIFHLLVG, for which the amyloid nucleation score is -0.567 ± 1.1.

CYINKVRCMMHLWDHDDTWG: the amyloid nucleation score amounted to 0.734 ± 0.81.

For TVYNDNFVCRILNLDITILF, the amyloid nucleation score came out at 6.957 ± 0.053.

In the case of PCTVHASNRTLGHRVKSCSV, the amyloid nucleation score was -0.515 ± 1.1.

On to VNVNMPWTEERSKSEMSNTW, for which the amyloid nucleation score turned out to be 1.4 ± 0.37.

As to QMAINAGRRRRHAEYGLRNS, the amyloid nucleation score turned out to be 0.684 ± 0.57.

As for LCLTLVRPPRSCMLATL, the amyloid nucleation score entry is “inactive”.

For CNRAQLNVSPNLDDMRKFGV, the amyloid nucleation score is -0.506 ± 1.

Turning to FNRVLVPRIKNTWILYCYFI, the amyloid nucleation score result was “inactive”.

Take VCYAGLLAKRLRLVVVSGNV: the amyloid nucleation score came to 0.531 ± 0.26.

As for NFIVW, the amyloid nucleation score was -0.417 ± 0.64.

In the case of YGSCGQRKN, the amyloid nucleation score amounted to 0.519 ± 0.3.

The substance TQMTMEGAYPCCVVVP displayed an amyloid nucleation score of 0.903 ± 0.74.

For the substance RWEMLPVKSHNNLRIRK, the amyloid nucleation score is -0.293 ± 0.31.

In turn, LTTVGHSVKLSWRVLSG gave an amyloid nucleation score of 1.9 ± 0.18.

For the substance ALYETTVPLLVWLGA, the amyloid nucleation score is 0.463 ± 0.24.

For DMLVCNGLFVFRASKGTIDA, the amyloid nucleation score is -0.837 ± 1.1.

The substance TYEMTRMSGIKSSLLPREFW gave an amyloid nucleation score of 1.52 ± 0.17.

For TGLNLFRDSQTGELGGGYTR, the amyloid nucleation score turned out to be 5.495 ± 0.049.

For the substance SRRLCVTFAVFGSHKVLLS, the amyloid nucleation score result is “inactive”.

Turning to DLNYFSTMGEVLYMFSVLTY, the amyloid nucleation score was -0.08 ± 1.

Regarding KNFQEHYVFLRARRLKLLSY, the amyloid nucleation score is -0.095 ± 0.8.

As for FLPYFNPEVSGIFCVNRMST, the amyloid nucleation score was -0.971 ± 0.53.

GFGNFVINDWSLR: the amyloid nucleation score was -1.56 ± 1.1.

In turn, TLGLLDHWSLREWDTTGWVE registered an amyloid nucleation score of 0.691 ± 0.37.

For the substance DSSLKLGNTETFIDRSMLCN, the amyloid nucleation score was -0.407 ± 0.4.

CFVNGLRNSHLGNLVWVPIG: the amyloid nucleation score was -1 ± 0.39.

As for YYGLVSGGLQYVCMFGSFIY, the amyloid nucleation score entry was “inactive”.

Regarding CSGYSERAPRFCSDLIVCST, the amyloid nucleation score is 0.574 ± 0.51.

In turn, RGFWRVFGCRHIVATPFEVE gave an amyloid nucleation score of 8.675 ± 0.058.

RNYRLRMDGDCGLFFCCGD came in with an amyloid nucleation score of 9.348 ± 0.051.

As for NWIDVLFKCKC, the amyloid nucleation score is -0.156 ± 0.62.

PAFQCMVQMKPGLWVV: the amyloid nucleation score is -0.456 ± 0.78.

Take ASLAEKGL: the amyloid nucleation score was -0.497 ± 0.38.

As for MENGHCYFCQCTKSH, the amyloid nucleation score came to 2.85 ± 0.1.

Substance RSHLSTLEMSTSIGKGNPNY showed an amyloid nucleation score of 0.685 ± 0.56.

As to KWTFLRLILTMV, the amyloid nucleation score was -0.511 ± 0.56.

With VLYSRVLDGRESTNLGRL, the amyloid nucleation score result was “inactive”.

As to YQLRCKCSTF, the amyloid nucleation score is -0.757 ± 0.41.

In turn, EYMPP returned an amyloid nucleation score of 0.924 ± 0.16.

As for RWAFTSFGSCLDKCYKYDYC, the amyloid nucleation score was -0.913 ± 0.49.

In turn, GRRLKGYVTSGIEDWLKGRM returned an amyloid nucleation score of 0.908 ± 0.35.

As for TFRCVVRPLGMRSVLMAGSG, the amyloid nucleation score came out at 0.852 ± 0.47.

For SYPYFMLRTTLNTLKTWFWM, the amyloid nucleation score is -0.403 ± 1.

For the substance VWLYCSEQDRCVMLASRELL, the amyloid nucleation score amounted to 0.465 ± 0.34.

CFFTSYTRA: the amyloid nucleation score was -0.114 ± 0.55.

As to LSYRRFFRLILKGAVG, the amyloid nucleation score result was “inactive”.

On to FLIFTTLLYCMVDMHAGTTF, for which the amyloid nucleation score is -1.77 ± 0.78.

As for SRWPLGNMCGKPVEMPEKWS, the amyloid nucleation score is 0.836 ± 0.55.

WYVFACLVELYNCGPHGAID: the amyloid nucleation score entry is “inactive”.

The substance SSDTIQYYSKQNMVRRENC registered an amyloid nucleation score of 1.09 ± 0.52.

On to ILDSGVRYVFMRWLIGYCND, for which the amyloid nucleation score is -0.513 ± 0.33.

Turning to KTGESMVNPIARMWLR, the amyloid nucleation score was determined as 1.51 ± 0.17.

As for ILVSMDRLCLWAGTSASGFS, the amyloid nucleation score came to 0.278 ± 0.55.

Take YLSNKT: the amyloid nucleation score was -0.515 ± 0.29.

As for SSGSRRLWSLRSRIAQRNMQ, the amyloid nucleation score amounted to 2.83 ± 0.17.

As to LERFSATYLKAWSGGVCVRV, the amyloid nucleation score was -0.067 ± 0.65.

NAHMSRRGYSSMMRCY: the amyloid nucleation score result is “inactive”.

In the case of TLQKELSHVQETRYTW, the amyloid nucleation score is -0.288 ± 1.

On to LWCPVHRAYGYAIHSVKGAH, for which the amyloid nucleation score turned out to be 1.04 ± 0.34.

As to GMKCAAFSESVNHRLQFNGT, the amyloid nucleation score is -0.345 ± 0.33.

MSITSC: the amyloid nucleation score result was “inactive”.

In the case of CNYMSVWN, the amyloid nucleation score is -0.021 ± 0.74.

The substance DRYSTCSNRKSTRYLFMTFA returned an amyloid nucleation score of 0.151 ± 0.36.

Substance EYIYLNLYISDNLYSSGKSG registered an amyloid nucleation score of 2.88 ± 0.16.

IDRCGTLVTPDGINGRVTRV yielded an amyloid nucleation score of 0.951 ± 0.55.

RLRSILLSWCCRFGGSQLRA returned an amyloid nucleation score of 0.581 ± 0.39.

In the case of VDLAR, the amyloid nucleation score entry is “inactive”.

As to ITSSRDDVSYTVGPKDMFES, the amyloid nucleation score amounted to 1.17 ± 0.37.

The substance RVGQGSEACFRSWSIAGPPY displayed an amyloid nucleation score of 2.8 ± 0.14.

With RSFGYIMLWVMIFNRIKLIF, the amyloid nucleation score entry was “inactive”.

PLVTWHFS came in with an amyloid nucleation score of 0.413 ± 0.31.

Regarding RYFINFSSLCHQLDILWRCV, the amyloid nucleation score is -1.03 ± 0.76.

As for VGFSNGLDFDAVFNMKCQQW, the amyloid nucleation score is -0.965 ± 0.41.

On to SCMCMEICINWNFRCIDGRG, for which the amyloid nucleation score came to 6.66 ± 0.078.

Regarding LYETSMNDPMRVHHLRCEFI, the amyloid nucleation score is -0.254 ± 0.56.

Consider GPFNKMYAYEIRQTGAFWRQ, for which the amyloid nucleation score was -0.098 ± 0.79.

VHRTEVRLLSQGTRYVSCNS had an amyloid nucleation score of 2.06 ± 0.3.

Consider LNVMFCNVVNGFYYMDSFVC, for which the amyloid nucleation score stood at 6.838 ± 0.044.

Consider RMSVRLKVVHLDAIIVLVLG, for which the amyloid nucleation score was determined as 0.877 ± 0.8.

For LYSTRRCHVRELVPLLGARS, the amyloid nucleation score was 0.362 ± 0.25.

In turn, YVRAGRVNVILCVSENCIGG displayed an amyloid nucleation score of 8.27 ± 0.049.

YDQVSFAL: the amyloid nucleation score was -0.584 ± 0.76.

In turn, ITFAYVSLTLHRINEMGYQL yielded an amyloid nucleation score of 4.65 ± 0.049.

On to LVRMIYTYSVRSDSVSFKSF, for which the amyloid nucleation score was -0.132 ± 0.38.

The substance GLSVKTGQGSGFPDLCVGKR yielded an amyloid nucleation score of 0.838 ± 0.17.

As for TLNVRIAS, the amyloid nucleation score was -0.124 ± 0.62.

On to CDTYNFCIL, for which the amyloid nucleation score was determined as 6.124 ± 0.035.

Turning to CNFVTILLGMN, the amyloid nucleation score was determined as 4.85 ± 0.055.

For the substance RVNPCMTEGSLGLICSPYWY, the amyloid nucleation score is -0.511 ± 0.22.
